# Test results reported in US20030134774A1, “Methods for inhibiting cardiac disorders” (priority 2001, published 2003).
# B1: rPMT: recombinant Pasteurella multocida toxin, a Gαq agonist used as pharmacological probe (protein, UniProt P17452 1-1285, looked up)
# Dermonecrotic toxin: MKTKHFFNSDFTVKGKSADEIFRRLCTDHPDKQLNNVKWKEVFINRFGQMMLDTPNPRKIVEKIINEGLEKQGLKNIDPETTYFNIFSSSDSSDGNVFHYNSLSESYRVTDACLMNIFVERYFDDWDLLNSLASNGIYSVGKEGAYYPDHDYGPEYNPVWGPNEQIYHSRVIADILYARSVWDEFKKYFMEYWQKYAQLYTEMLSDTFLAMAIQQYTRQTLTDEGFLMVCNTYYGNKEEVQITLLDIYGYPSTDIICIEQKGLPTPKVILYIPGGTQPFVEFLNTDDLKQWIAWHLKDNKHMVAFRKHFSLKQRQEGETFTGIDKALQYIAEESPEWPANKYILYNPTHLETENLFNIMMKRTEQRMLEDSDVQIRSNSEATRDYALSLLETFISQLSAIDMLVPAVGIPINFALSATALGLSSDIVVNGDSYEKRKYGIGSLVQSALFTGINLIPVISETAEILSSFSRTEEDIPAFFTEEQALAQRFEIVEEELHSISPDDPPREITDENLHKIRLVRLNNENQPLVVLRRLGGNKFIRIEPITFQEIKGSLVSEVINPVTNKTYYVSNAKLLGGSPYSPFRIGLEGVWTPEVLKARASVIGKPIGESYKRILAKLQRIHNSNILDERQGLMHELMELIDLYEESQPSSERLNAFRELRTQLEKALYLPEMEALKKQILQIPNKGSGAARFLLRTAMNEMAGKTSESTADLIRFALQDTVISAPFRGYAGAIPEAIDFPVKYVIEDISVFDKIQTNYWELPAYESWNEGSNSALLPGLLRESQSKGMLSKCRIIENSLYIGHSYEEMFYSISPYSNQVGGPYELYPFTFFSMLQEVQGDLGFEQAFATRNFFNTLVSDRLSLMENTMLLTESFDYTPWDAIYGDINYDEQFAAMSINERIEKCMNTYRGVAFQNSSKSIDFFLNNLTTFIDNGLTEIAISDLPYDIVQQEISQFLQGSNEWKTLDAMLFNLDKGDINGAFRKLLQSAKDNNIKFRAIGHSDNSVPPFNNPYKSLYYKGNIIAEAIEKLDREGQKFVVFADSSLLNSTPGTGRPMPGLVQYLKIPATVVDSDGAWQFLPDVASSRVPIEVTELENWQVLTPPQGKILGLKQFKLTAGFPTEQSRLPLLENSVSEDLREELMQKIDAIKNDVKMNSLVCMEAGSCDSVSPKVAARLKDMGLEAGMGASITWWRREGGMEFSHQMHTTASFKFAGKEFAVDASHLQFVHDQLDTTILILPVDDWALEIAQRNRAINPFVEYVSKTGNMLALFMPPLFTKPRLTRAL
# Assays:
# Type in all cases: cell-based, rat
# cardiomyocytes [1] = experiment: TUNEL assay of apoptosis in cardiomyocyte cultures
# Experimental: rPMT increases H2O2-induced apoptosis in cardiomyocyte cultures. Cells were treated without or with rPMT (400 ng/ml) for 24 hr followed by H202 (500 μM) for 24 hr. The percentage of cells undergoing apoptosis was measured by TUNEL assay as described in Methods below. Data are from a single experiment and are representative of results obtained on 3 separate culture preparations.
# TUNEL staining was performed for detection of apoptotic cells according to manufacturer's instructions (Boehringer). Approximately 500 cardiomyocytes were imaged by fluorescence microscopy and the number of cells that scored TUNEL-positive is presented as a percentage of total.
# p38-MAPK = experiment: Phospho-p38 MAP kinase Western blot in cardiomyocytes
# Experimental: (§1) rPMT promotes the activation of ERK1/2, JNK and p38-MAPK cascades. Incubations were for 24 hr in the presence of the indicated concentrations of rPMT. PMA (100 nM, 5 min) and sorbitol ([…], 5 min) were included as positive controls. Cell lysates were subjected to SDS-PAGE followed by Western blotting as described in Methods below. Phosphorylated forms of ERK1/2 (A), p38 MAP kinase (B) or JNK (C) were detected by specific anti-phospho-ERK1/2, -p38 MAP kinase or -JNK antibodies, respectively. Blots were stripped and subjected to immunoblot analysis with total ERK1/2 or p38 MAP kinase to normalize for minor variations in protein loading (Panels A and B). Top: representative autoradiograms (with each lane from a single gel exposed for the same duration). Bottom: quantification of each series of experiments (n=3).
# (§2) Specific immunoreactivity for individual PKC isoforms was quantified according to methods described previously. For assays of MAPKs and AKT, cells were exposed to test agents as indicated in individual experimental protocols, washed three times with ice-cold calcium/magnesium-free Dulbecco's PBS (pH 7.1), scraped into ice-cold extraction buffer [20 mM β-glycerophosphate pH 7.5, 20 mM sodium fluoride, 2 mM EDTA, 0.2 mM sodium vanadate, 10 μg/ml aprotinin, 25 μg/ml leupeptin, 50 μg/ml PMSF, and 0.3% (v/v) β-mercaptoethanol], lysed by sonication, and centrifuged at 10,000 g for 10 min at 4° C. The supernatant was diluted in SDS-PAGE sample buffer, boiled for 5 min, and stored at −70° C. Western blot analysis was performed with antibodies that are selective for the phosphorylated (activated) forms of ERK1/2, p38-MAPK, JNK, AKT, and pan-PKC according to manufacturer's instructions. For each panel in each Figure, the results are from a single gel exposed for a uniform duration. Bands were detected by enhanced chemiluminescence and blots were quantified by laser scanning densitometry.
# PKCα and PKCλ = experiment: Immunoblot of PKCα/PKCλ abundance and distribution in cardiomyocytes; conditions: 24 hr stimulation
# Experimental: rPMT selectively activates nPKC isoforms. Cardiomyocyte cultures were incubated in culture medium without or with NE (10 μM), rPMT (400 ng/ml) or PMA (100 nM) for 24 hr (Panels A and C) or 5 min (Panel B). Soluble extracts were prepared and separated by SDS-PAGE followed by immunodetection of total PKC isoform abundance with antibodies that are specific for the individual PKC isoforms (Panel A), or phosphorylated forms of PKC (largely PKCε) with a pan-phospho-PKC antibody (Panels B and C), as described in Methods below. GF109203 was included at 5 μM 30 min prior to stimulation as indicated.
# Cells were maintained in culture in the presence of 10% FCS for 96 hr and then switched to serum-free medium for 24 hr prior to the addition of agonists as indicated. For PKC, extracts were prepared and subjected to SDS-PAGE to resolve individual isoforms according to methods described previously (14).
# Specific immunoreactivity for individual PKC isoforms was quantified according to methods described previously. […] Bands were detected by enhanced chemiluminescence and blots were quantified by laser scanning densitometry.
# JNK = experiment: Phospho-JNK Western blot in cardiomyocytes
# Experimental: as §1, §2
# cardiomyocytes [2] = experiment: Protein synthesis ([3H]phenylalanine incorporation) in cardiomyocytes; conditions: rPMT 400 ng/ml or NE 10 μM, 48 hr, serum-free
# Experimental: rPMT mimics the effect of norepinephrine to promote cardiomyocyte hypertrophy. Cardiomyocytes were cultured in serum-free medium without or with rPMT (400 ng/ml) or norepinephrine (NE, 10 μM) for 48 hr. Cardiomyocytes were fixed, permeabilized, and stained with monoclonal anti-α-actinin sarcomeric (Panel A, magnification×100) or subjected to Northern blot analysis for measurements of steady-state ANF mRNA expression (Panel B). Effects of rPMT (black bars) and NE (gray bars) vs. vehicle (white bars) on sarcomeric organization (Panel C), cell size (Panel D), and protein synthesis (Panel E) are illustrated (n=3 for each).
# As a second index of cardiomyocyte growth, relative rates of protein synthesis were measured as radiolabeled phenylalanine incorporation into cell protein. Cells were stimulated in serum-free medium with agonists (or vehicle as control) for 48 hr at 37° C. The medium was replaced with serum-free medium containing [^3H]phenylalanine (0.1 μCi/ml) and non-radioactive phenylalanine (0.3 mM, to minimize variations in the specific activity of the precursor pool responsible for protein synthesis) during the final 24 hr of stimulation. Cells were rinsed with PBS and incubated in 10% trichloroacetic acid for 30 min on ice. […] Aliquots of the SDS-soluble protein were counted in 5 ml of scintillant.
# [3] = 24 hr, indicated concentrations
# [4] = increased progressively for 24 hr
# [5] = rPMT 24 hr, sorbitol 5 min positive control
molecule,measurement,setting,value
B1,effect on H2O2-induced apoptosis,cardiomyocytes [1]; rPMT 400 ng/ml 24 hr followed by H2O2 500 μM 24 hr,augmented
same,number of TUNEL-positive cells,cardiomyocytes [1]; serum-free conditions for 48 hr,small increase
same,expression of total p38-MAPK protein,p38-MAPK,does not significantly alter
same,signaling through the p38-MAPK cascade (phosphorylation of terminal kinase),p38-MAPK; [3],dose-dependent increases
same,time at which p38-MAPK activation is detectable,p38-MAPK; [4],1 h
same,magnitude of p38-MAPK activation,p38-MAPK; [5],more modest
same,abundance and subcellular distribution of PKCα and PKCλ,PKCα and PKCλ,is not altered
same,expression of total JNK protein,JNK,does not significantly alter
same,signaling through the JNK cascade (phosphorylation of terminal kinase),JNK; [3],dose-dependent increases
same,time at which JNK activation is detectable,JNK; [4],1 h
same,magnitude of JNK activation,JNK; [5],more modest
same,[3H]phenylalanine incorporation (protein synthesis),cardiomyocytes [2],enhance [^3H]phenylalanine incorporation
